Test results reported in US20260123609A1.

Legend:
[1] = target: mouse CD98HC (NP_001154885.1) (mouse) (UniProt P10852); assay: flow cytometry, spleen T cells (mCD45+ mTCR β+) of wild-type C57BL/6 mouse
[2] = target: humanized CD98HC protein (human/mouse chimeric (human amino acids 215-630 of SEQ ID NO: 2 in place of mouse amino acids 147-565 of SEQ ID NO: 1)) (UniProt P08195); assay: flow cytometry, spleen B cells (mCD45+ mCD19+) of CD98HC humanized homozygous mouse (H/H)
[3] = target: mouse CD98HC (NP_001154885.1) (mouse) (UniProt P10852); assay: flow cytometry, spleen B cells (mCD45+ mCD19+) of wild-type C57BL/6 mouse
[4] = target: humanized CD98HC protein (human/mouse chimeric (human amino acids 215-630 of SEQ ID NO: 2 in place of mouse amino acids 147-565 of SEQ ID NO: 1)) (UniProt P08195); assay: flow cytometry, spleen T cells (mCD45+ mTCR β+) of CD98HC humanized homozygous mouse (H/H)

Sequence of UniProt P08195 (P08195 other isoform, or with tags, fused parts or gaps mutant limits assumed): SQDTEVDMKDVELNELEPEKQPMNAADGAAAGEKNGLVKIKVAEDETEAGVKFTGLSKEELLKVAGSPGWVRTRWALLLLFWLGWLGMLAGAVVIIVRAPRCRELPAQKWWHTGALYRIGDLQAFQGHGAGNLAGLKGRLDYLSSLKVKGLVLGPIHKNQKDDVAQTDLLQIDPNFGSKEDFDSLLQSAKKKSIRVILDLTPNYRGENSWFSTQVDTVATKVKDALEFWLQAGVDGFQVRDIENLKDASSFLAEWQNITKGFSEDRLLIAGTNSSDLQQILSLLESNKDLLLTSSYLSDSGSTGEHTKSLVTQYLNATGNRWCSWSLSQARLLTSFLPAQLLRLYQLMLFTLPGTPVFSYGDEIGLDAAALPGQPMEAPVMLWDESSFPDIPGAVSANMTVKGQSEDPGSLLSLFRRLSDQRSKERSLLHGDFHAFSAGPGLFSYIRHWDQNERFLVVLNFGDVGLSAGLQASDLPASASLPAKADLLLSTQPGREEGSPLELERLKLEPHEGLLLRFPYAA
Sequence of UniProt P10852 (P10852 other isoform, or with tags, fused parts or gaps): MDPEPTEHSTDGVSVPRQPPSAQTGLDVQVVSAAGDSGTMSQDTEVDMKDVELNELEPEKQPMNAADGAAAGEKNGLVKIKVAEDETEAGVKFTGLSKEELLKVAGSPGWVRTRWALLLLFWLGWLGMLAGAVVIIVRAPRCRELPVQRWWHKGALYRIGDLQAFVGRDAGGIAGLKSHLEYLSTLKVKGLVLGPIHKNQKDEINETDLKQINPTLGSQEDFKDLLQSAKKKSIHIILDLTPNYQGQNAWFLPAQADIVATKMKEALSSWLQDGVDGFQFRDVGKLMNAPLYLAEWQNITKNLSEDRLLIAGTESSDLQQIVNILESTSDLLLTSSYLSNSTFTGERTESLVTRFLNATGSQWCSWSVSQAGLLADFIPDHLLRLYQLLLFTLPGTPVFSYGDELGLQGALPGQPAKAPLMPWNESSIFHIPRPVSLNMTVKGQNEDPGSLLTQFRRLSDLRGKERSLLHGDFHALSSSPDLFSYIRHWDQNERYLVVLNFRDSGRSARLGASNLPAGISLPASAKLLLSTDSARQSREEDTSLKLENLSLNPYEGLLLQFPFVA

| Substance | percentage of positive cells [1] [%] | percentage of positive cells [2] [%] | percentage of positive cells [3] [%] | percentage of positive cells [4] [%] |
| --- | --- | --- | --- | --- |
| APC anti-mouse CD98 (4F2) Antibody (Biolegend, Catalog number: 128211) | 14.7 | 0.3 | 17.2 | 0.27 |
| FITC anti-human CD98 Antibody (Biolegend, Catalog number: 315603) | 0.45 | 27.1 | 0.82 | 27.6 |
